6 molecules from patent US7462695B2, “Insect chymotrypsin and inhibitors thereof” (Hexima Limited, priority 2003, dated 2008) can be followed below.

Broadly, the IC50 is the concentration that inhibits the measured activity by half.

For test [1], the target named is NaPI-insensitive chymotrypsins from H. punctigera (Helicoverpa punctigera, UniProt A0PGE0). Put plainly: Inhibition of NaPI-insensitive chymotrypsin (gut extract depleted of trypsins and NaPI-sensitive chymotrypsins). The format is biochemical. The following applies: pH 10, 30 min preincubation at 30° C.; for % Inhibition Insensitive: at maximum concentration tested. As to the method:
The midgut was dissected from 100 fourth instar larvae and buffer soluble extracts were prepared. The gut extract was depleted of NaPI-sensitive proteases by passage through an affinity column composed of immobilized NAPI protein (C1, C2, T1-T4). […] This preparation of unbound material was used to study the pH optimum, substrate preference and effect of a range of proteinase inhibitors on the activity of the NaPI-insensitive proteinase. […] The best substrate for enzyme assays was determined using seven different commercial substrates.
(§1) Several proteinase inhibitors were tested for their ability to inhibit the activity of the insensitive chymotrypsins. The buffer used for all assays was 500 mM CAPS, 75 mM NaCl, 2.5 mM MgCl2 at pH 10.

Test [2] concerns chymotrypsin activity in unfractionated gut extracts from H. punctigera. Put plainly: Chymotrypsin activity in unfractionated gut extracts with proteinase inhibitors (FIG. 3). The format is biochemical, Helicoverpa punctigera. The settings on record: larvae raised on haricot bean diet without added proteinase inhibitors; substrate SAAPFpNA. As to the method: FIG. 3 is a graphical representation showing the effect of various proteinase inhibitors on the chymotrypsin activity in unfractionated gut extracts from H. punctigera. Proteinase inhibitors were mixed with 1 μg of protein from an unfractionated gut extract before incubation with the chymotrypsin substrate N-succinyl-Ala-Ala-Pro-Phe-p-nitroanilide. Inhibition is expressed as a percentage of the total activity in the control samples.
Fourth-instar larvae were killed using ethyl-acetate prior the removal of individual gut which were then homogenized in a mortar and pestle in an equal amount [(w/v)] of 50 mM Tris-HCl, pH 8.0 containing 100 μM benzamidine. Insoluble material was removed by centrifugation at 20,000 rpm for 15 min at 4° C. and total protein concentration determined using the Bradford method (Bradford, Anal Biochem 72: 248-254, 1976) with reagents from BioRad and BSA as a standard.
Unfractionated gut extract containing approximately 1 μg of buffer soluble protein was added to 10 μL CAPS buffer (0.5 M, 3-[cyclohexylamino]-1-propane-sulfonic acid, pH 10) and made to a final volume of 100 μL in individual wells of a 96 well microtiter plate. Proteinase inhibitors were added over a range of concentrations and incubated for 15 min at 25° C. Bovine chymotrypsin (100 ng) was used as a positive control, both for activity and inhibition. The chromogenic artificial substrate SAAPFpNA (N-Succinyl-L-alanyl-L-alanyl-L-prolyl-L-phenylalanine 4-nitroanilide) was then added to a final concentration of 1 mM and hydrolysis of the substrate was measured at 405 nm using the SpectraMax 250 microtiter plate reader (Molecular Devices).

The test system of test [3] is chymotrypsin activity in gut extracts of H. punctigera larvae. Put plainly: Inhibition of chymotrypsin activity in individual larval gut extracts (FIG. 2F). In kind it is biochemical, Helicoverpa punctigera. The settings on record: 80 nM inhibitor; SAAPFpNA substrate. The source says:
(§2) FIG. 2 is a graphical representation showing growth of H. punctigera larvae fed on either low protein haricot bean artificial diet or cotton leaf artificial diet, in the presence or absence of 0.26% (w/v) NaPIs. Weight gain (mg) was monitored for 21 days. […] (A) Growth of larvae. (B) Relative size of larvae at 21 days after feeding on cotton artificial diet, in the presence or absence of 0.26% NaPIs. […] (C) The effect of NaPIs on gut trypsin and chymotrypsin activity. When each H. punctigera larva reached the late fourth/early fifth instar stage of development, the gut was removed and gut extract prepared prior to assays for trypsin and chymotrypsin activity. […] Trypsin activity was determined using BApNA substrate and chymotrypsin activity with SAAPFpNA substrate. Units of activity are expressed as change in absorbance at 405 nm/min/mg gut extract protein (±standard deviation). […] Trypsin activity was determined using BApNA substrate and chymotrypsin activity with SAAPFpNA substrate. Units of activity are expressed as change in absorbance at 405 nm/min/mg faecal extract protein (±standard deviation). […] Frass extracts were analysed on 15% ((w/v)) SDS-PAGE and transferred to nitrocellulose. […] Units of activity are expressed as substrate hydrolysis at 405 nm/min/mg extract protein (±standard deviation). […] Trypsin activity was determined using BApNA substrate. […]

The target of test [4] is bovine chymotrypsin (Bos taurus, UniProt P00766). Put plainly: Inhibition of bovine chymotrypsin. The format is biochemical. The following applies: 100 ng bovine chymotrypsin, pH 10; for % Inhibition BC: at maximum concentration tested. As to the method: as §1
For test [5], the system named is trypsin activity in gut extracts of H. punctigera larvae. Put plainly: Inhibition of trypsin activity in individual larval gut extracts by T1 (FIG. 2F). In kind it is biochemical, Helicoverpa punctigera. The following applies: 80 nM inhibitor; BApNA substrate.
From the text: as §2

In test [6] the test system is H. armigera larvae. Put plainly: Bioassay of H. armigera larvae on transgenic cotton expressing NaPI and StPotIA (FIG. 27). The format is in vivo, Helicoverpa armigera. As to the method: FIG. 27 is a graphical representation showing growth of H. armigera larvae on transgenic cotton expressing NaPI and PotI. Transgenic cotton cv Coker 315 was used in bioassays with H. armigera. Thirty larvae were fed leaves of either the control untransformed Coker 315, transgenic line 1 (NaPI), transgenic line 2 (StpotIA) or transgenic plant 3 (NaPI×StPot1A). The weight of the larvae was measured at day 7 post-egg hatch. (A) Growth of larvae. At day 7, larvae fed leaves expressing NaPI were 86% of the weight of the control larvae fed untransformed leaves. Larvae fed leaves expressing StPotIA were 92% of the control and larvae fed leaves expressing both NAPI and StPotIA were 46% of the control. (B) The effect of ingestion of NAPI and PotI on gut trypsin and chymotrypsin activity. Gut from the larvae in each experiment were pooled and extracts prepared. All assays were performed in duplicate. Trypsin activity (black) was determined using BApNA substrate and chymotrypsin activity (grey) with SA2PFpNA substrate. Units of activity are expressed as change in absorbance at 405 nm/min/ug gut extract protein. Trypsin activity was reduced, relative to the control, in the extracts from larvae fed leaves expressing NaPI and NaPI+StPotIA. Chymotrypsin activity was elevated in extracts from larvae fed leaves expressing NAPI or NAPI+StPotIA and reduced in extracts from larvae fed StPotIA alone.
Two gene constructs (pHEX2 and pHEX6) were prepared for transformation of cotton (Gossypium hirsutum). pHEX2 consists of a 35S promoter driving the NaPI gene with a 35S terminator, inserted into the binary vector pBIN 19 (Bevan, Nucl. Acids Research, 12: 8711-8721, 1984). pHEX6 consists of a 35S promoter driving the StPotIA gene with a 35S terminator inserted into the binary vector pBIN 19.
Transgenic cotton was produced using the method of Umbek et al., Biotechnology, 5: 263-266, 1987) with modifications. Hypocotyl sections of cotton Cv Coker 315 were co-cultivated with Agrobacterium tumefaciens strain LBA 4404 containing the required binary vector. […]

The subject of test [7] is NaPI-insensitive chymotrypsins from H punctigera. Put plainly: Inhibition of NaPI-insensitive chymotrypsins by StPotIA and StPotIB (FIG. 26). The format is biochemical, Helicoverpa punctigera. As to the method: FIG. 26 is a graphical representation showing inhibition of NaPI-insensitive chymotrypsin by bacterially expressed StPotIA and StPotIB. Inhibition of the NAPI-insensitive chymotrypsin from the gut of H. punctigera with purified PotI. (A) substrate SA2PFpNA, development time 30 min, (B) substrate SA2PLpNA, 30 min incubation. Mix of PotI isoforms from potato tuber (circle), StPotIA (square), StPotIB (triangle).
The inhibitory activity of StPotIA and StPotIB against the NaPI-insensitive chymotrypsins from H punctigera was determined by preincubating the NaPI-insensitive protease (10 μL) with varying amounts of StPotIA and StPotIB (0-600 nM) in 133 mM CAPS buffer, pH 10.0 at 30° C. in 96 well microtitre plates. After the 30 min preincubation, the incubation was started by the addition of substrate (SA2PFpNA, SA2PLpNA or SA2PMpNA) to a final concentration of 1 mM in a final volume of 100 μL. Absorbance was measured at 405 nm after 30 or 60 min.

Sequence of NaPI-insensitive chymotrypsins from H. punctigera (A0PGE0 entry or part of it): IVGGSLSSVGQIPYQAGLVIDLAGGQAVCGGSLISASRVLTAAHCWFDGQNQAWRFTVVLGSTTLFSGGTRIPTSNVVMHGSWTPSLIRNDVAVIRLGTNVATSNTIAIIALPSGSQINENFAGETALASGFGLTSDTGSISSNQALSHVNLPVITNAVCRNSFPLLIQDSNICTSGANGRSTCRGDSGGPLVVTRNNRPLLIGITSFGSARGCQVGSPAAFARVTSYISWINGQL

`O=S(=O)(F)Cc1ccccc1` [PMSF, phenylmethyl sulphonyl fluoride, reference compound]: in test [1], the “% Inhibition Insensitive” value was 100%.
As to “C1: 6 kDa chymotrypsin inhibitor monomer released from the N. alata PI precursor (SEQ ID NO:23) (DRICTNCCAGTKGCKYFSDDGTFVCEGESDPRNPKACTLNCDPRIAYGVCPRSEEKKN; listed as Nicotiana alata)”, the “inhibition of gut chymotrypsin activity” value in test [2] worked out at 70%. Further, the “inhibition of chymotrypsin activity, extracts of control larvae (in words)” value in test [3] was “did not inhibit chymotrypsin activity in the extracts of six control larvae and only partially inhibited the gut chymotrypsins in the rest of the controls”.
As for `CC(=O)N[C@@H](CC(C)C)C(=O)N[C@@H](CC(C)C)C(=O)N[C@H](C=O)CCCNC(=N)N` [Leupeptin, reference compound], in test [4], the midpoint of inhibition, the IC50, lay at 2400 µM and the “% Inhibition BC” value is 52%.
As for “T1: 6 kDa trypsin inhibitor monomer released from the N. alata PI precursor (SEQ ID NO:24) (DRICTNCCAGTKGCKYFSDDGTFVCEGESDPRNPKACPRNCDPRIAYGICPLAEEKKN; listed as Nicotiana alata)”, in test [5], the “inhibition of trypsin activity, extracts from NaPI-fed larvae” value is “could not be inhibited” and the “inhibition of trypsin activity, extracts of control larvae” value is “almost totally inhibited”.

B1: StPotIA: PotI homolog cloned from wounded potato leaf RNA, alanine at P1 site (SEQ ID NO:81); E. coli expressed, His-tagged (protein)
chain: MESKFAHIIVFFLLATSFETLMARKEGDGSEVIKLLKESESESWCKGKQFWPELIGVPTKLAKEIIEKENPSINDVPIILNGTPVPADFRCNRVRLFDNILGDVVQIPRVA
modifications: His tag; potato
notes: E. coli expressed, His-tagged
Consider B1, for which, in test [6] (day 7 post-egg hatch, protein expressed in transgenic cotton leaves), the “larval weight as % of control larvae fed untransformed leaves” value is 92%. Moreover, in test [6] (expression in cotton leaves), the “effect on larval growth compared to the control (in words)” value is on record as “small inhibition of larval growth”. For the same molecule, the gut chymotrypsin activity result in test [6] (pooled gut extracts, SA2PFpNA) is listed as “reduced”. The “inhibition of the NaPI-insensitive chymotrypsin (in words)” value in test [7] is “good inhibitors”. Also, the “inhibition of SA2PMpNA hydrolysis” value in test [7] (substrate SA2PMpNA) is given as 40%.

B2: Bowman Birk: soybean Bowman Birk inhibitor, purchased from Sigma-Aldrich (protein, UniProt P01055 40-110, looked up)
Bowman-Birk type proteinase …: DDESSKPCCDQCACTKSNPPQCRCSDMRLNSCHSACKSCICALSYPAQCFCVDITDFCYEPCKPSEDDKEN
In the case of B2, in test [1], the “% Inhibition Insensitive” value was 100% and the IC50 was determined as 0.24 µM. In test [4], the IC50 is 0.06 µM and the “% Inhibition BC” value is given as 100%. Also, the “inhibition of gut chymotrypsin activity (in words)” value in test [2] is reported as “failed to abolish all the chymotrysin activity”.
